The source of these data is paper PMC12505888, “Inhibitory activities of monoclonal antibodies against Staphylococcus aureus clumping factor A” (mBio, 2025).

Assay [1] deals with A domain of S. aureus Newman ClfA (clumping factor A), residues 40-559 (Staphylococcus aureus Newman) (UniProt Q53653). The experiment in a line: ELISA; ClfA-A Newman immobilised (100 ng per well); serial dilutions of human complement factor I (20 μg/mL); detected with rabbit anti-factor I polyclonal antibody and anti-rabbit HRP. For orientation: In an ELISA, binding on a coated surface is turned into a signal by an enzyme label.

In assay [2] the target is A domain of ClfA from S. aureus strain N315 (Staphylococcus aureus N315) (UniProt Q99VJ4). The experiment in a line: ELISA; ClfA-A proteins immobilised (100 ng per well, carbonate/bicarbonate buffer pH 9.6, 4°C overnight); serial dilutions of soluble human fibrinogen (4 mg/mL) in PBS; bound fibrinogen detected with anti-human fibrinogen-HRP, A450.
In assay [3] the target is A domain of ClfA from S. aureus strain WU1 (Staphylococcus aureus WU1). The description is as above.
The target in assay [4] is A domain of ClfA from S. aureus strain USA300 LAC (Staphylococcus aureus USA300 LAC). The assay is described as above.
In assay [5] the target is Human von Willebrand factor (human) (UniProt P04275). In words: ELISA; human vWF immobilised; vWbp with ClfA-A carrying only His tag added to the reaction; bound vWbp assessed with anti-StrepII antibody.
The target is the same in assay [6]. The experiment in a line: ELISA; human vWF immobilised (100 ng per well); serial dilutions of recombinant ClfA-A (20 μg/mL) or recombinant vWbp (5 μg/mL); detected with anti-StrepII or anti-His HRP antibody.
In assay [7] the target is T1, A domain of S. aureus Newman ClfA (clumping factor A), residues 40-559 (Staphylococcus aureus Newman, UniProt Q53653 40-559).
T1 construct: Cloned in pET15b (NdeI/BamHI); also called ClfA-A; ClfA-A Newman; source: E. coli BL21, purified (Ni-NTA resin followed by Streptactin resin); not shown: His6, N-terminal, kept
T1 sequence: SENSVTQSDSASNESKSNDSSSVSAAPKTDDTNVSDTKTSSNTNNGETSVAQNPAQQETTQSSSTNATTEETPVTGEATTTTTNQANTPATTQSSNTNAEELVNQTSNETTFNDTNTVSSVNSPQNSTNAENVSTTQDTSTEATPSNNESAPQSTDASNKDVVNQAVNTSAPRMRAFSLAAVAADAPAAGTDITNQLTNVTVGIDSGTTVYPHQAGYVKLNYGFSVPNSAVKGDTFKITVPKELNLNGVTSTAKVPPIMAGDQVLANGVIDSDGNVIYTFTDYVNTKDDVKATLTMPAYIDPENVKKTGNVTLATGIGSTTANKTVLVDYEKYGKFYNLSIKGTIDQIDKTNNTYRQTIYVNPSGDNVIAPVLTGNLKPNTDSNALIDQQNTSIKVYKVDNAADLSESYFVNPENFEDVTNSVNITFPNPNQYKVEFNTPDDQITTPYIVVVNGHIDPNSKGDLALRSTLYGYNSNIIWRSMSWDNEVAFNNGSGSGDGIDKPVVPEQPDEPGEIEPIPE
In words: ELISA; ClfA-A proteins immobilised (100 ng per well, carbonate/bicarbonate buffer pH 9.6, 4°C overnight); serial dilutions of soluble human fibrinogen (4 mg/mL) in PBS; bound fibrinogen detected with anti-human fibrinogen-HRP, A450. Conditions: both partners purified.

As usually defined, the EC50 is the midpoint of the concentration-response curve. As to Human complement factor I (enzyme), in assay [1], the EC50 was found to be 1800 nM.
Take “Human fibrinogen (from UniProt P02671-2 20-644; P02675 31-491; P02679-2 27-437) (complex)”: the values for the EC50 in assay [2], in assay [3] and in assay [4] were 1300 nM, 1100 nM and 1000 nM, respectively.
Turning to “vWbp + ClfA-A Newman (from UniProt Q53653 40-559) (complex)”, the EC50 in assay [5] amounted to 3500 nM.
On to “von Willebrand binding protein (vWbp) of S. aureus Newman, recombinant (natural protein)”, for which the EC50 in assay [6] was found to be 14500 nM.

B1: Human fibrinogen (complex)
chain 1: ADSGEGDFLAEGGGVRGPRVVERHQSACKDSDWPFCSDEDWNYKCPSGCRMKGLIDEVNQDFTNRINKLKNSLFEYQKNNKDSHSLTTNIMEILRGDFSSANNRDNTYNRVSEDLRSRIEVLKRKVIEKVQHIQLLQKNVRAQLVDMKRLEVDIDIKIRSCRGSCSRALAREVDLKDYEDQQKQLEQVIAKDLLPSRDRQHLPLIKMKPVPDLVPGNFKSQLQKVPPEWKALTDMPQMRMELERPGGNEITRGGSTSYGTGSETESPRNPSSAGSWNSGSSGPGSTGNRNPGSSGTGGTATWKPGSSGPGSTGSWNSGSSGTGSTGNQNPGSPRPGSTGTWNPGSSERGSAGHWTSESSVSGSTGQWHSESGSFRPDSPGSGNARPNNPDWGTFEEVSGNVSPGTRREYHTEKLVTSKGDKELRTGKEKVTSGSTTTTRRSCSKTVTKTVIGPDGHKEVTKEVVTSEDGSDCPEAMDLGTLSGIGTLDGFRHRHPDEAAFFDTASTGKTFPGFFSPMLGEFVSETESRGSESGIFTNTKESSSHHPGIAEFPSRGKSSSYSKQFTSSTSYNRGDSTFESKSYKMADEAGSEADHEGTHSTKRGHAKSRPVRGIHTSPLGKPSLSP
chain 2: QGVNDNEEGFFSARGHRPLDKKREEAPSLRPAPPPISGGGYRARPAKAAATQKKVERKAPDAGGCLHADPDLGVLCPTGCQLQEALLQQERPIRNSVDELNNNVEAVSQTSSSSFQYMYLLKDLWQKRQKQVKDNENVVNEYSSELEKHQLYIDETVNSNIPTNLRVLRSILENLRSKIQKLESDVSAQMEYCRTPCTVSCNIPVVSGKECEEIIRKGGETSEMYLIQPDSSVKPYRVYCDMNTENGGWTVIQNRQDGSVDFGRKWDPYKQGFGNVATNTDGKNYCGLPGEYWLGNDKISQLTRMGPTELLIEMEDWKGDKVKAHYGGFTVQNEANKYQISVNKYRGTAGNALMDGASQLMGENRTMTIHNGMFFSTYDRDNDGWLTSDPRKQCSKEDGGGWWYNRCHAANPNGRYYWGGQYTWDMAKHGTDDGVVWMNWKGSWYSMRKMSMKIRPFFPQQ
chain 3: YVATRDNCCILDERFGSYCPTTCGIADFLSTYQTKVDKDLQSLEDILHQVENKTSEVKQLIKAIQLTYNPDESSKPNMIDAATLKSRKMLEEIMKYEASILTHDSSIRYLQEIYNSNNQKIVNLKEKVAQLEAQCQEPCKDTVQIHDITGKDCQDIANKGAKQSGLYFIKPLKANQQFLVYCEIDGSGNGWTVFQKRLDGSVDFKKNWIQYKEGFGHLSPTGTTEFWLGNEKIHLISTQSAIPYALRVELEDWNGRTSTADYAMFKVGPEADKYRLTYAYFAGGDAGDAFDGFDFGDDPSDKFFTSHNGMQFSTWDNDNDKFEGNCAEQDGSGWWMNKCHAGHLNGVYYQGGTYSKASTPNGYDNGIIWATWKTRWYSMKKTTMKIIPFNRLTIGEGQQHHLGGAKQAGDV
notes: Fibrinogen A-alpha chain, human; Fibrinogen B-beta chain, human; Fibrinogen gamma chain, human; also called Fg; source: bought: Sigma; copies: 2 + 2 + 2
As for B1, the response in assay [7] was half-maximal at 1300 nM (EC50).
